The test system of assay [1] is progenitor cells in the dentate gyrus. Nature of the assay: BrdU-positive (newborn) cells in the dentate gyrus of hypophysectomized rats. The format is in vivo, Fisher rats. The source says: In this example, the density of BrdU-positive cells in the dentate gyrus of hypophysectomized (Hx) rate treated according to the invention with growth hormone (GH), cortisol (C), and L-thyroxine (T) was compared to the density of BrdU-positive cells in the dentate gyrus of hypophysectomized rats treated with cortisol (C), and L-thyroxine (T), and to the density of the same cells for an untreated unoperated control group.
Fisher rats (Harlan Sprague Dawley) which were inact or hypophysectomized at 50 days of age were mainained under standardized conditions of temperature (24-26° C.), humidity (50-60%) and with lights on between 0500 and 1900 h.
(§1) The rats had free access to standard laboratory chow and water. Hormonal treatment started 7-10 days after hyophysectomy. All the hypophysectomized rats were given cortisol phosphate (400 μg/kg/day; Solu-Cortef, Upjohn, Puurs, Belgium) and L-thyroxine (10 μg/kg/day; Sigma, USA) diluted in saline as a daily subcutaneous injection (at 0800 h). Recombinant bovine GH (bGH) was diluted in 0.05 M phosphate buffer, pH 8.6, with 1.6% glycerol and 0.02% sodium azide. GH 1 mg/kg/day was given as one daily subcutaneous injection at 24 h intervals. The treatment continued for seven days. Thereafter the rats were sacrificed and the brains taken out and prepared for immunohistochemistry.
Ten hypophysectomized rats were substituted with only cortisole and L-thyroxine. […] The thymidine analog BrdU is incorporated into the genetic material upon mitotic division whereafter it can be detected immunohistochemically in the resulting cells. […]
(§2) The number of BrdU positive cells in the dentate gyrus of the hippocampus were counted using unbiased counting techniques. […]
For the immunofluorescence, sections were treated for DNA denaturation as described above, followed by incubation in TBS-TS for 30 min. Thereafter the sections were incubated with mouse-anti-Calbindin-D28k, 1:2000 (Sigma) for 16 h at 4° C. and was detected with a Texas red conjugated donkey anti-mouse IgG. BrdU was detected with a FITC conjugated rabbit anti-BrdU antibody. […]

For assay [2] the test system is unchanged. Kind of assay: BrdU-positive cell proliferation in normal rats treated with GH. Particulars: normal animals treated one week with GH, compared with normal controls and with hypophysectomized animals substituted one week then unsubstituted 3 weeks. It counts as in vivo, Fisher rats. Here is the method: as §1
Ten hypophysectomized rats were substituted with only cortisole and L-thyroxine. Fifteen hypophysectomized rats were substituted with cortisole, L-thyroxine and GH. […] The thymidine analog BrdU is incorporated into the genetic material upon mitotic division whereafter it can be detected immunohistochemically in the resulting cells. […]
as §2
The total number of BrdU positive cells in the granule cell layer, the subgranular layer and the hilus and their corresponding sample volumes were determined in 7-9 coronal sections, […], that contained the dentate gyrus. […]

B1: GH: Recombinant bovine growth hormone, given 1 mg/kg/day subcutaneously together with cortisol and L-thyroxine (protein, UniProt P01246 27-217, looked up)
Somatotropin: AFPAMSLSGLFANAVLRAQHLHQLAADTFKEFERTYIPEGQRYSIQNTQVAFCFSETIPAPTGKNEAQQKSDLELLRISLLLIQSWLGPLQFLSRVFTNSLVFGTSDRVYEKLKDLEEGILALMRELEDGTPRAGQILKQTYDKFDTNMRSDDALLKNYGLLSCFRKDLHKTETYLRVMKCRRFGEASCAF
As for B1, in assay [1] (hypophysectomized animals treated with cortisol and L-thyroxine, quantified after one week of substitution), the “rate of proliferation of progenitor cells” value was “significantly increased”. The granulae cell neurons entry in assay [1] (hypophysectomized animals, cortisone, thyroxine and GH vs only cortisone and thyroxine, four weeks after the last BrdU injection, FIG. 2) is given as “significantly more granulae cell neurons”. For the same molecule, the “number of newborn cells in the dentate gyrus” value in assay [1] (hypophysectomized rats, GH 1 mg/kg/day s.c. plus cortisone and thyroxine, after 7 days, compared to only cortisone and thyroxine, FIG. 1) was “significantly increased”. The proliferation entry in assay [2] is “increased”.

The values above are taken from patent US6797264B1, “Medicinal product and method for treatment of conditions affecting neural stem cells or progenitor cells” (Cellartis AB, priority 1998, dated 2004).
